Test results: patent US7301005B2, “Immunomodulatory peptides derived from heat shock proteins and uses thereof” (priority 2000, dated 2007)

Legend:
RA patients = experiment: Phase I clinical trial of mucosal tolerization to dnaJP1; type: in vivo, human; settings: 15 RA patients, by mouth, 6 months
Description: FIGS. 26A to 26E show the results of treatment-induced modulation of T cell responses to dnaJP1. […] Evaluation was performed at monthly intervals. Controls included PHA as a general mitogen and dnaJpv (SEQ ID NO:28). Evaluation by FACS at monthly intervals of intracellular cytokine production (pro-inflammatory—FIGS. 26 B, C and D; toleragenic—FIG. 26E) by PBMC of the patients who were responsive at the screening. Results are expressed as % CD3+ cells in dnaJP1 stimulated/unstimulated cultures.
In the Phase I clinical trial, 15 RA patients were treated with three different doses of dnaJP1 (four times per day, by mouth) for 6 months. Entry criteria required clinically active disease and pro-inflammatory T cell responsiveness in vitro to the peptide.

[1] = system: SFMC from patients with oJIA; experiment: Proliferative response of SFMC incubated with dnaJ and restimulated with autologous feeder cells plus peptide; type: cell-based, human; settings: persistent n=16, extended n=15; p=0.05
Description: Results, expressed as stimulation index (SI), are shown as mean+SD.
In order to identify possible relevant epitopes on the bacterial dnaJ protein, PBMC and SFMC of patients with oJIA were incubated for 72 hr with dnaJ, and restimulated with autologous feeder cells the in presence or absence of selected E. coli derived MHC class II binder peptides for 96 hr.
(§1) In order to evaluate whether human homologous peptides could be the target of cross-recognition leading to self reactivity, human peptides derived from regions of HSJ1, HDJ1, or HDJ2 having sequence homology with E. coli dnaJ were studied. SFMC of 14 patients with oJIA presenting a SI to the recombinant E. coli hsp dnaJ greater than 3 were restimulated for 96 hr with autologous cells in presence or absence of human peptide 2, 3, or 5, which are homologs of bacterial peptide 4; human peptide 20, 21, or 23, which are homologs of bacterial peptide 22; or human peptide 164, 167, or 176, which are homologs of bacterial peptide 174. SFMC proliferative responses, pro-inflammatory cytokine production, and anti-inflammatory IL-4 levels were overall similar between the peptides derived from human dnaJ proteins and the homologous bacterial peptides.
Results are expressed as SI or pg/ml (mean+SD). […]
To explore the possible correlation of clinical features with the development of peptide-induced immune modulation, oJIA patients were grouped according to the course of disease, including those with persistent disease (n=16), and those with extended disease (n=15) o-JIA. (FIG. 25).

[2] = system: SFMC from patients with oJIA; experiment: Cytokine production in culture supernatants of SFMC incubated with dnaJ and restimulated with autologous feeder cells plus peptide; type: cell-based, human
Description: Results are expressed as pg/ml (mean+SD).
Cytokine production to the same peptides was examined in culture supernatants of SFMC from patients with oJIA. […] SFMC from only one of 21 patients with oJIA produced detectable levels of the anti-inflammatory cytokine IL-10, and none produced detectable levels of IL-4.
as §1
Results are expressed as SI or pg/ml (mean+SD).

[3] = system: SFMC from patients with persistent oJIA; experiment: FACS analysis of CTLA+/CD25/CD4 positive cells after peptide stimulation; type: cell-based, human; settings: FIG. 24A
Description: “TC” indicates tissue culture not stimulated. Bars represent SD.
FACS analysis was used to evaluate the percent of CTLA+/CD25/CD4 positive cells following stimulation of representative SFMC from patients with persistent oJIA with non-homologous human peptide 134. The % of CTLA+/CD25/CD4 positive cells, which are believed to have a regulatory function, was higher in the peptide treated cells as compared to cells maintained under control conditions (FIG. 24A). Expansion of the regulatory cells in response to peptide 134 correlated well with production of IL-10 in the same culture conditions (FIG. 24B).

[4] = system: PBMC and SFMC from healthy controls and patients with oJIA; experiment: Cytokine production in culture supernatants of PBMC or SFMC stimulated with recombinant E. coli hsp dnaJ for 72 hr; type: cell-based, human
Description: Results, expressed as pg/ml, are shown as mean+SD.
The production of the pro-inflammatory cytokines interferon-gamma (IFNγ) and tumor necrosis factor-alpha (TNFα), and the anti-inflammatory cytokines interleukin-4 (IL-4) and IL-10 was evaluated in culture supernatants of PBMC from healthy controls and in PBMC-SFMC paired samples from patients with oJIA incubated for 72 hr with or without dnaJ.

[5] = system: peripheral blood mononuclear cells (PBMC); experiment: Proliferative response (stimulation index) of PBMC stimulated with antigen for 96 hr; type: cell-based, human; settings: 10 healthy subjects vs 21 patients with oJIA
[6] = system: synovial fluid mononuclear cells (SFMC) from patients with oJIA; experiment: Proliferative response (stimulation index) of SFMC stimulated with antigen for 96 hr; type: cell-based, human; settings: for ratio SI SFMC/SI PBMC, dnaJ compared with TT: paired PBMC-SFMC samples from oJIA patients
[7] = system: CD3+CD69+ cells in PBMC and SFMC; experiment: Evaluation of activated CD3+CD69+ T cells after incubation with recombinant E. coli hsp dnaJ; type: cell-based, human; settings: p=0.0002
Description: FIG. 1B provides an evaluation of CD69+ T cells from healthy subjects (CTRL) and patients with oJIA following 72 hour incubation with recombinant E. coli hsp dnaJ. Results, expressed as percentage CD3+CD69+ cells, are shown as mean+SD.
To evaluate whether dnaJ-specific T cells were enriched at the synovial sites of inflammation, synovial fluid mononuclear cells (SFMC) from all patients with oJIA were stimulated with dnaJ for 96 hr.

QKRAAYDQYGHAAFE (listed as Escherichia coli) [dnaJP1]
treatment-induced change of T cell cytokine responses (RA patients): dramatic immune deviation from pro-inflammatory to regulatory-type cytokines

SGPFFTFSSSFPGHS (listed as Homo sapiens) [Peptide 134, non-homologous human peptide (HSJ1)]
Proliferative responses, extended disease vs persistent o-JIA [1]: significantly lower
IL-10 production, extended disease vs persistent o-JIA ([2]; p=0.0012): highly significant difference
IFN production, extended disease vs persistent o-JIA ([2]; p=0.076): border line level of statistical significance
% of CTLA+/CD25/CD4 positive cells vs control conditions [3]: higher

B1: dnaJ: recombinant E. coli heat shock protein dnaJ (protein, UniProt P08622 2-376, looked up)
Chaperone protein DnaJ: AKQDYYEILGVSKTAEEREIRKAYKRLAMKYHPDRNQGDKEAEAKFKEIKEAYEVLTDSQKRAAYDQYGHAAFEQGGMGGGGFGGGADFSDIFGDVFGDIFGGGRGRQRAARGADLRYNMELTLEEAVRGVTKEIRIPTLEECDVCHGSGAKPGTQPQTCPTCHGSGQVQMRQGFFAVQQTCPHCQGRGTLIKDPCNKCHGHGRVERSKTLSVKIPAGVDTGDRIRLAGEGEAGEHGAPAGDLYVQVQVKQHPIFEREGNNLYCEVPINFAMAALGGEIEVPTLDGRVKLKVPGETQTGKLFRMRGKGVKSVRGGAQGDLLCRVVVETPVGLNERQKQLLQELQESFGGPTGEHNSPRSKSFFDGVKKFFDDLTR
cytokine production from PBMC of patients and controls ([4]; 72 hr): no difference
IL-4 levels ([4]; controls and patients, supernatants from PBMC and SFMC): below the detection limit
IL-10 production, SFMC vs PBMC ([4]; oJIA patients, 72 hr): comparable in the two compartments
TNFα production, SFMC vs PBMC ([4]; oJIA patients, 72 hr): comparable in the two compartments
IFNγ production, SFMC vs PBMC ([4]; oJIA patients, 72 hr, p<0.01): significantly higher production
Proliferative responses of PBMC, healthy subjects vs oJIA patients [5]: not significantly different
mean stimulation index (SI) of SFMC vs corresponding PBMC ([6]; oJIA patients, 96 hr, p=0.01): significantly higher
ratio SI SFMC/SI PBMC, dnaJ compared with TT [6]: significantly (p=0.038) higher
ratio SI SFMC/SI PBMC, dnaJ compared with TT ([6]; listed as recombinant dnaJ): significantly (p<0.02) greater
percentage of activated T cells (CD3+CD69+ cells), SFMC with respect to PBMC [7]: significantly higher
